Legend:
[1] = target: T1, 10E8-GT10.2 epitope scaffold (designed scaffold 10E8-GT10.2 with …, N-linked glycosylation sites added (positions not given))
T1 chain: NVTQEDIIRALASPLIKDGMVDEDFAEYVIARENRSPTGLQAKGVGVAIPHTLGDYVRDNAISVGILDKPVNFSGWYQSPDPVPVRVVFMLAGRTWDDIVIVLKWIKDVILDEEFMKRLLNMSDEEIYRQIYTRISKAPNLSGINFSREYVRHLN

[2] = target: T2, 10E8-GT10.1 epitope scaffold (synthetic construct, circularly …, N-linked glycosylation sites added (positions not given))
T2 chain: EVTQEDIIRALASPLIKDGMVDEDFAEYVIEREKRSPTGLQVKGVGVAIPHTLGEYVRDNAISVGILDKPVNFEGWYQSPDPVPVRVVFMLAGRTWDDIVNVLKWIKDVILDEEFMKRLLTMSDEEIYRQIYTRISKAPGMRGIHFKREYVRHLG

10E8-B1 epitope scaffold = target: T3, 10E8-B1 epitope scaffold (synthetic construct (resurfaced …))
T3 chain: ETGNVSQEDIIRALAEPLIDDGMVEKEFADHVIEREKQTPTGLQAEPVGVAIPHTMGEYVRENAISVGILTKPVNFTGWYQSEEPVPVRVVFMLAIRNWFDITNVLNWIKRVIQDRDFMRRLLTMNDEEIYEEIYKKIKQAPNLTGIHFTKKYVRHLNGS

10E8-GT4 = target: T4, 10E8-GT4 (synthetic construct (T117-based HIV-1 …)); test: SPR; ProteOn XPR36, GLC sensor chip; antibody as ligand, monomeric scaffold as analyte; monovalent KD; conditions: both partners purified
T4 construct: source: FreeStyle 293F, purified (IMAC, SEC)
T4 chain: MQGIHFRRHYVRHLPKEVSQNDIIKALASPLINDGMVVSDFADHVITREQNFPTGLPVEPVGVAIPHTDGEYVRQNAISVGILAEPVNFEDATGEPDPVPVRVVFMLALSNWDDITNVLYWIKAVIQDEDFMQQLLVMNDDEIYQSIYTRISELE

B1: NHP-Comp_MPER-GT10v55_W26-11 (antibody, V domains shown)
VH: EVQLVESGGGLAKPGGSLRLSCAASGFTFSNYWMCWVRQAPGKGLEWISVINSVTSGTYYADSVKGRFTISRENAKNTLYLQMDRLRVEDTAVYYCAWGLGLTAPPVYWGQGVLVTVSS
VL: ETVVTQEPSLSVSPGGTVTLTCGLSSGSVSTSNYPSWYQQTPGQAPRTLVYRTNIRPSGVPDRFSGSILGNKAALTITGAQADDESDFYCLFYMGSGIWVFGGGTRLTV
With B1 the Kd [1] was 0.0128 µM.

B2: MPER-070 (antibody, V domains shown)
VH: QVQLQESGPGLVKPSETLSLTCTVSGGSISSSSYYWGWIRQPPGKGLEWIGSIYYSGSTYYNPSLKSRVTISVDTSKNQFSLKLSSVTAADTAVYYCARHHPHAYDFWSGYYSERYYFDYWGQGTLVTVSS
VL: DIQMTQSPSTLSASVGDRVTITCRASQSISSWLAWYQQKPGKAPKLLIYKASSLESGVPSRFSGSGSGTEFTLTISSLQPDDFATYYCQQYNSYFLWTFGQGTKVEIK
Work on B2 yielded a Kd [2] of 4.1 µM and a Kd [1] of 13 µM.

B3: NHP-10E8_MPER-GT10v55_W26-06 (antibody, V domains shown)
VH: QVQLQESGPGLVKPSETLSLTCAVSGDSISSGYYYWSWIRQPPGKGLEWIGYITYSGSTSYNPSLKSQVTISRDTAKNQFSLKLSSVTAADTAVYYCARGGTYYNFWSDGSPQYNRFGFWGPGVPVTVSS
VL: DIVMTQTPLSLPVTPGEPASISCRSSQSLLHSEDGNTYLDWYLQKPGQSPQLLIYEVSNRASGVPDRFSGSGSDTDFTLKISRVEAEDVGVYYCMQGLEFPLTFGGGTKVELK
Binder B3 has a Kd [1] of 0.00145 µM and a Kd (10E8-B1 epitope scaffold) of 6.42 µM.

B4: NHP-10E8_MPER-GT10v55_W21-19 (antibody, V domains shown)
VH: QVQLQESGPGLLKPSDTLSLICAVSGGSISGGYGWGWIRQPPGKGLEWIGSIYSSNGNTYYNPSLKSRVTISTDTSKNQFSLKLNSVTAADTAVYYCGSGGLSYSFWSGYQSLHRLHVWGPGVLVTVSS
VL: DIVMTQTPLSLPVTPGEPASISCRSSQSLLDSEDGNTYLDWYLQKPGQSPQLLIYEVSKRASGVPDRFSGSGSDTDFTLKISRVEAEDVGVYYCMQGLEFPFTFGPGTKLDIK
In the case of B4, the Kd [1] is reported as 0.000579 µM and the Kd (10E8-B1 epitope scaffold) is reported as 0.415 µM.

B5: NHP-10E8_MPER-GT10v55_W21-12 (antibody, V domains shown)
VH: EVQLVESGGGLVQPGGSLRLSCAASGFTFSSYGMHWVRQAPGKGLEWVAVIWYDGSKKYYADSVKDRFTISRDNSKNMLYLQMNNLKFEDTAVYYCARVAPDYDFWSGSYTYSGLDSWGQGVVVTVSS
VL: DIQMTQSPSSLSASVGDTVTITCRASQSISSWLDWYQQKPGKAPKLLIYKASNLQSGVPSRFSGSGSGTHFTLTISSLQPEDFATYYCLQYNSSPYSFGQGTKVEIK
B5 was tested, and the Kd [1] was 0.000842 µM and the Kd (10E8-B1 epitope scaffold) was 1.01 µM.

B6: NHP-Comp_MPER-GT10v55_W26-08 (antibody, V domains shown)
VH: QVTLKESGPALVKPTQTLTLTCTFSGFSISTTGTGVGWIRQPPGKALEWLATISWNDSKYYSTSLKSRLTISKDTSKNQVVLTFTNMDPVDTATYSCARVLQPTITTTNRFDVWGPGVLVTVSS
VL: SYDLTQPPSVSVSPGQTARITCGGDNIGSKYVHWYQQKPPQAPVLVIYYDTERPSGIPERFSGSKSGNTATLTISGVEAGDEADYYCQVWDSSSDHNVFGSGTKLTV
For B6, the Kd [1] was 0.00218 µM.

B7: MPER-073 (antibody, V domains shown)
VH: QVQLQESGPGLVKPSQTLSLTCTVSGGSISSGGYYWSWIRQHPGKGLEWIGYIYYSGSTYYNPSLKSRVTISVDTSKNQFSLKLSSVTAADTAVYYCARDCAVYDFWSGYGPGGWFDPWGQGTLVTVSS
VL: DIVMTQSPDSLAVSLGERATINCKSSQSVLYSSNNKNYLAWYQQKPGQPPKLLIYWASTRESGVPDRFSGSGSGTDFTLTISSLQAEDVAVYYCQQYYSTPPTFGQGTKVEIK
B7 showed a Kd [2] of 7.3 µM and a Kd [1] of 20 µM.

B8: NHP-Comp_MPER-GT10v55_W26-10 (antibody, V domains shown)
VH: EVQLVESGGGLAKPGGSLRLSCVASGFRFSNYWMNWVRQTPGKGLEWISVINSGGVITYYADSVKGRFTISRDNSKNTLSLQMNSLRTEDTAVYYCARQSLDWGLDSWGQGVVVTVSS
VL: SSELTQDPAVSVALGQTVRITCQGDSLRNHYASWYQQKPGQAPVLVVYGNNNRPSGIPERFSGSRSGNTASLTITGAQVEDEADYYCDSWDSSGTHRVFGGGTRLTV
In the case of B8, the Kd [1] is reported as 0.0746 µM.

B9: MPER-072 (antibody, V domains shown)
VH: QVQLQESGSGLVKPSQTLSLTCAVSGGSISSGGYSWSWIRQPPGKGLEWIGYIYHSGSTYYNPSLKSRVTISVDRSKNQFSLKLSSVTAADTAVYYCARAGHNYDFWSGYYPVGGAFDIWGQGTMVTVSS
VL: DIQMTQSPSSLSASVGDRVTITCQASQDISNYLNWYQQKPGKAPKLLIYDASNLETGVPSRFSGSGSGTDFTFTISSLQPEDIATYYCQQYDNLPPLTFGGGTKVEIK
With B9 the Kd [2] was 13 µM and the Kd [1] was 16 µM.

B10: MPER-071 (antibody, V domains shown)
VH: QVQLVQSGAEVKKPGASVKVSCKASGYTFTSYDINWVRQATGQGLEWMGWMNPNSGNTGYAQKFQGRVTMTRNTSISTAYMELSSLRSEDTAVYYCARGITYYDFWSGYYPTPYYFDYWGQGTLVTVSS
VL: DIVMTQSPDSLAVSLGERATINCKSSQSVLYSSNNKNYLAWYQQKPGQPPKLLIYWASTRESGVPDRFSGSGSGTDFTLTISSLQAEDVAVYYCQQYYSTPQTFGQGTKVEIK
Work on B10 yielded a Kd [2] of 6.4 µM.

B11: NHP-10E8_MPER-GT10v55_W26-03 (antibody, V domains shown)
VH: QVQLQESGPGVVKPSETLSLTCAVSGGSISDNYWWTWIRQPPGKGLEWIGYIYGSNTSTNYNPSLKSRVTISKDTSKNQFSLKLSSVTAADTAVYYCARDREFYNFWSGYYGAYGLDSWGQGVVVTVSS
VL: QPVLTQPTSLSASPGASARLSCTLSSGINVGSYSIYWYQQKPGSPPRYLLYYDSDSNKHQGSGVPSRFSGSNDASANAGLLLISGLQSEDEADYYCAIWHSSTYYIFGGGTRLTV
B11 was tested, and the Kd [1] was 0.000178 µM and the Kd (10E8-B1 epitope scaffold) was 0.84 µM.

B12: NHP-10E8_MPER-GT10v55_W26-05 (antibody, V domains shown)
VH: EVQLVESGGGLVQPGGSLRLSCAASGFTFSNYWMNWVRQAPGKGLEWVGFIKNKADGGTAAYAESVKGRFTISRDDSKNTLYLQMNSLKTEDTAVYYCTREATFYNFWSGYYTPQYGLDSWGQGVVVTVSS
VL: QPVLTQPTSLSASPGASARLTCTLSSGISVGSYRIFWYQQKPGSPPRYLLNYHTDSDKHQGSGVPSRFSGSKDASANAGILLISGLQSEDEADYYCMIWHNNAHGLFGGGTRLTV
For B12, the Kd [1] was 0.263 µM and the Kd (10E8-B1 epitope scaffold) was 9.68 µM.

B13: NHP-10E8_MPER-GT10v55_W3-20 (antibody, V domains shown)
VH: EVQLVESGGGLVQPGGSLRLSCAASGFSFSNYWMSWVRQAPGKGLEWVGFIKNKADGGTAAYAESVKGRFTISRDDSKNTLYLQMNSLKTEDTAVYFCARDLGRYNFWSAFYSQNRFDVWGPGVLVTVSS
VL: SYEVTQPPSVSVSPGQMARITCGGDNLGSKYVHWYQQKPAQAPVMVMYDDSERPSGIPERFSGSKSGNTATLTISGVEAGDEADYYCQVWDSSSDHPLFGGGTRLTV
With B13 the Kd [1] was 0.00482 µM and the Kd (10E8-B1 epitope scaffold) was 4.27 µM.

B14: NHP-Comp_MPER-GT10v55_W21-08 (antibody, V domains shown)
VH: EVQLVESGGGLVQPGGSLRLSCAASGFTFSHYGLHWVRQAPGKGLEWVAVIWSDGNKKYYADSVKDRFTISRDNSKNMLYLQMNNLKLEDTAVYYCATYTYGDWGQGVLVTVSS
VL: SYELTQPPSVSVSPGQMARITCGGDNLGSKYVHWYQQKPPQAPVLVIYDDSERPSGIPERFSGSKSGNTATLTISGVEAGDEADYYCQVWDSSSDNWVFGGGTRLTV
B14 was tested, and the Kd [1] was 0.0151 µM.

B15: MPER-063 (antibody, V domains shown)
VH: QVQLVQSGAEVKKPGSSVKVSCKASGGTFSSYAISWVRQAPGQGLEWMGGIIPIFGTANYAQKFQGRVTITADESTSTAYMELSSLRSEDTAVYYCARGGTHYDFWSGYSDYYYGMDVWGKGTTVTVSS
VL: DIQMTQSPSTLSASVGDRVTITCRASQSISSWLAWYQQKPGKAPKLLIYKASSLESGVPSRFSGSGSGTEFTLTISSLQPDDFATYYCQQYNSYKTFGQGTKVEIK
Work on B15 yielded a Kd [2] of 4 µM and a Kd [1] of 6.6 µM.

B16: MPER-068 (antibody, V domains shown)
VH: QVQLQESGPGLVKPSETLSLTCTVSGGSISSYYWSWIRQPPGKGLEWIGYIYYSGSTNYNPSLKSRVTISVDTSKNQFSLKLSSVTAADTAVYYCARSPSPYYDFWSGYFQETNWFDPWGQGTLVTVSS
VL: not shown
With B16 the Kd [2] was 0.7 µM and the Kd [1] was 2.1 µM.

B17: MPER-053 (antibody, V domains shown)
VH: EVQLVESGGGLVQPGRSLRLSCTASGFTFGDYAMSWFRQAPGKGLEWVGFIRSKAYGGTTEYAASVKGRFTISRDDSKSIAYLQMNSLKTEDTAVYYCTREGAYYDFWSGYLTKVYGMDVWGQGTTVTVSS
VL: not shown
Work on B17 yielded a Kd [2] of 11 µM and a Kd [1] of 7.9 µM.

B18: 10E8-iGL1 (antibody, V domains shown)
VH: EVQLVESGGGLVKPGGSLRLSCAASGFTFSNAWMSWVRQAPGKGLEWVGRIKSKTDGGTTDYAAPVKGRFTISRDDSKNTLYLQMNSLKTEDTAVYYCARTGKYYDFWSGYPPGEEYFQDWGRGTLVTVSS
VL: SSELTQDPAVSVALGQTVRITCQGDSLRSYYASWYQQKPGQAPVLVIYGKNNRPSGIPDRFSGSSSGNTASLTITGAQAEDEADYYCSSRDKSGSRLSVFGGGTKLTVL
notes: source: FreeStyle 293F or ExpiCHO, purified (protein A)
For B18, the Kd (10E8-GT4) was 0.25 µM, the koff (10E8-GT4) was 25 s⁻¹ and the kon (10E8-GT4) was 1e+08 M⁻¹ s⁻¹.

B19: NHP-Comp_MPER-GT10v55_W21-07 (antibody, V domains shown)
VH: EVQLVESGGGLAKPGGSLRLSCAASGFTFSSYWMNWVRQTPGKGLEWISAINSGGGSTYYADSVKGRFTISRDNSKNTLSLQMNSLRAEDTAVYYCAKGYGLDSWGQGVVVTVSS
VL: QAAPTQPPSVSGSPGQSVTISCTGTSSDIGYYNAVSWYQQHPGKAPKLMIYEVSKRPSGVSDRFSGSKSGNTASLTISGLQAEDEADYYCSSYAGSNTFIFGAGTRLTV
With B19 the Kd [1] was 5.51 µM.

B20: MPER-055 (antibody, V domains shown)
VH: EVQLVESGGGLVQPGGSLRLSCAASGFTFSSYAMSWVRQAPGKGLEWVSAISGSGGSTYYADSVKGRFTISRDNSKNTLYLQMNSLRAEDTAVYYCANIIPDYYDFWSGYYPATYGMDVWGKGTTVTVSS
VL: DIQMTQSPSSLSASVGDRVTITCRASQGIRNDLGWYQQKPGKAPKRLIYAASSLQSGVPSRFSGSGSGTEFTLTISSLQPEDFATYYCLQHNSYPLSFGGGTKVEIK
B20 showed a Kd [2] of 16 µM and a Kd [1] of 22 µM.

B21: NHP-10E8_MPER-GT10v55_W21-04 (antibody, V domains shown)
VH: EVQLVESGGGLVQPGGSLRLSCVASGFTFSDYGFDWVRQAPGKGLEWVGFIRSKDYGGSTEYAASVKGRFTISRDDSKNTAYLQMTSLKAEDTAVYFCTRDLGFYNFWTGYYEVNRFDVWGAGVLVTVSS
VL: QPVLTQPTSLSASPGASARLTCTLRSGISVGSYRIFWYQQKPGSPPRYLLNYHTDSDNHQGSGVPSRFSGSKDASANAGILLISGLQSDDEADYYCMIWHNNACFFGGGTRLTV
B21 gave a Kd [1] of 0.000115 µM and a Kd (10E8-B1 epitope scaffold) of 22.9 µM.
